T1: human FcγRIIa type R (human, UniProt P12318 36-217)
T1 construct: also called FcgRIIaR; FcγRIIa(R)
T1 chain: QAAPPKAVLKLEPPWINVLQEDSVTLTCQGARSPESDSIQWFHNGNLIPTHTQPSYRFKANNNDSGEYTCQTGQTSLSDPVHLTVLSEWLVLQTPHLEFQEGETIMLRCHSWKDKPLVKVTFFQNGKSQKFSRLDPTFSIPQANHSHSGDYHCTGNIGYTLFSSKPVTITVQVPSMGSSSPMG

T2: human FcγRIIb (human, UniProt P31994 43-217, limits assumed)
T2 construct: also called FcgRIIb; FcγIIB
T2 sequence: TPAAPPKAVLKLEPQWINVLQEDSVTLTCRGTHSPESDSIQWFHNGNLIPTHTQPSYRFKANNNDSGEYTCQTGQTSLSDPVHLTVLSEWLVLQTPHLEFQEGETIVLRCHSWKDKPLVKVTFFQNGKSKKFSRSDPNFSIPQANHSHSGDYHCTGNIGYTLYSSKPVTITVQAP

T3: human FcγRIIa type H (human, UniProt P12318 36-217)
T3 construct: also called FcgRIIaH; FcγRIIa(H)
T3 sequence: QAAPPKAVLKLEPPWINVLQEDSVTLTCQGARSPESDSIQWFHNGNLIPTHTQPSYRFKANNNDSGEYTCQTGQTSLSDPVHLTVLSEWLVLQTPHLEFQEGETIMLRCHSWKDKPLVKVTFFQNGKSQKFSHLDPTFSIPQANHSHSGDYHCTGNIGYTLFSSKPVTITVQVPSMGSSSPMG


Key:
Test in all cases: SPR (Biacore), FcγR over captured antibody; binding amount divided by that of IL6R-BF648/IL6R-L x 100
human FcγRIa = target: T4, human FcγRIa (human, UniProt P12314 16-292, limits assumed)
T4 construct: also called FcgRIa; FcγRI (CD64)
Protocol: (§1) According to the following method, relative binding activities were calculated for the results of analyzing interactions with the respective FcγRs.

human FcγRIIa type R = target: T1, human FcγRIIa type R
Protocol: as §1

human FcγRIIIa type V = target: T5, human FcγRIIIa type V (human, UniProt P08637 17-208, limits assumed)
T5 construct: also called FcgRIIIaV; FcγRIIIa(V)
Protocol: as §1

human FcγRIIb = target: T2, human FcγRIIb
Protocol: as §1

human FcγRIIa type H = target: T3, human FcγRIIa type H
Protocol: as §1

T4 sequence (P12314 16-292 limits assumed): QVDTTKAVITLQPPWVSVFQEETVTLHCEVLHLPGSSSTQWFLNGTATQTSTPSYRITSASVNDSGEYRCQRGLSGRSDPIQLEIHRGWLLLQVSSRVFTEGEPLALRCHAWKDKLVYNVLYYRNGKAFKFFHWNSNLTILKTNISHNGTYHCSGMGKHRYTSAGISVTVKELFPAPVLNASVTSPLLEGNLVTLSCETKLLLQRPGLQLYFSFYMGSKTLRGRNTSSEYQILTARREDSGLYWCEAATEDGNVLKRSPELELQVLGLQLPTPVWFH
T5 sequence (P08637 other isoform, or with tags, fused parts or gaps limits assumed): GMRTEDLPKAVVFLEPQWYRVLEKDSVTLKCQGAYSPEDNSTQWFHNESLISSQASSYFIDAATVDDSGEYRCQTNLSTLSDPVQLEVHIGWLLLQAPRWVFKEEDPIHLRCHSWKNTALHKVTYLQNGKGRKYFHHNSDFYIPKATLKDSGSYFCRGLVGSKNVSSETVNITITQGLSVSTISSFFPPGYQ

Row | Binder | relative binding activity (human FcγRIa) | relative binding activity (human FcγRIIa type R) | relative binding activity (human FcγRIIIa type V) | relative binding activity (human FcγRIIb) | relative binding activity (human FcγRIIa type H)
1 | IL6R-BP129/IL6R-L (antibody, human IgG1, name in EU numbering, copies: 2 + 2) heavy: QVQLQESGPGLVKPSETLSLTCAVSGHSISHDHAWSWVRQPPGEGLEWIGFISYSGITNYNPSLQGRVTISRDNSKNTLYLQMNSLRAEDTAVYYCARSLARTTAMDYWGEGTLVTVSSASTKGPSVFPLAPSSKSTSGGTAALGCLVKDYFPEPVTVSWNSGALTSGVHTFPAVLQSSGLYSLSSVVTVPSSSLGTQTYICNVNHKPSNTKVDKKVEPKSCDKTHTCPPCPAPDLLGGDSVFLFPPKPKDTLMISRTPEVTCVVVDVSHEDPEVKFNWYVDGVEVHNAKTKPREEQDNSTYRVVSVLTVLHQDWLNGKEYKCKVSNKALPKPIEKTISKAKGQPREPQVYTLPPSRDELTKNQVSLTCLVKGFYPSDIAVEWESNGQPENNYKTTPPVLDSDGSFFLYSKLTVDKSRWQQGNVFSCSVMHEALHNHYTQESLSLSP light: DIQMTQSPSSLSASVGDRVTITCRASQDISSYLNWYQQKPGKAPKLLIYYTSRLHSGVPSRFSGSGSGTDFTFTISSLQPEDIATYYCQQGNTLPYTFGQGTKVEIK | 68 relative (IL6R-BF648/IL6R-L = 100) | 111 relative (IL6R-BF648/IL6R-L = 100) | 95 relative (IL6R-BF648/IL6R-L = 100) | 138 relative (IL6R-BF648/IL6R-L = 100) | 98 relative (IL6R-BF648/IL6R-L = 100)
2 | IL6R-BP143/IL6R-L (antibody, human IgG1, name in EU numbering, copies: 2 + 2) heavy: QVQLQESGPGLVKPSETLSLTCAVSGHSISHDHAWSWVRQPPGEGLEWIGFISYSGITNYNPSLQGRVTISRDNSKNTLYLQMNSLRAEDTAVYYCARSLARTTAMDYWGEGTLVTVSSASTKGPSVFPLAPSSKSTSGGTAALGCLVKDYFPEPVTVSWNSGALTSGVHTFPAVLQSSGLYSLSSVVTVPSSSLGTQTYICNVNHKPSNTKVDKKVEPKSCDKTHTCPPCPAPEYLGGDSVFLFPPKPKDTLMISRTPEVTCVVVDVSHEDPEVKFNWYVDGVEVHNAKTKPREEQYNSTYRVVSVLTVLHQDWLNGKEYKCKVSNAALPAPIEKTISKAKGQPREPQVYTLPPSRDELTKNQVSLTCLVKGFYPSDIAVEWESNGQPENNYKTTPPVLDSDGSFFLYSKLTVDKSRWQQGNVFSCSVMHEALHNHYTQESLSLSP light: DIQMTQSPSSLSASVGDRVTITCRASQDISSYLNWYQQKPGKAPKLLIYYTSRLHSGVPSRFSGSGSGTDFTFTISSLQPEDIATYYCQQGNTLPYTFGQGTKVEIK | 86 relative (IL6R-BF648/IL6R-L = 100) | 238 relative (IL6R-BF648/IL6R-L = 100) | 114 relative (IL6R-BF648/IL6R-L = 100) | 133 relative (IL6R-BF648/IL6R-L = 100) | 143 relative (IL6R-BF648/IL6R-L = 100)
3 | IL6R-BP145/IL6R-L (antibody, human IgG1, name in EU numbering, copies: 2 + 2) heavy: QVQLQESGPGLVKPSETLSLTCAVSGHSISHDHAWSWVRQPPGEGLEWIGFISYSGITNYNPSLQGRVTISRDNSKNTLYLQMNSLRAEDTAVYYCARSLARTTAMDYWGEGTLVTVSSASTKGPSVFPLAPSSKSTSGGTAALGCLVKDYFPEPVTVSWNSGALTSGVHTFPAVLQSSGLYSLSSVVTVPSSSLGTQTYICNVNHKPSNTKVDKKVEPKSCDKTHTCPPCPAPEYLGDDSVFLFPPKPKDTLMISRTPEVTCVVVDVSHEDPEVKFNWYVDGVEVHNAKTKPREEQYNSTYRVVSVLTVLHQDWLNGKEYKCKVSNKALPAPIEKTISKAKGQPREPQVYTLPPSRDELTKNQVSLTCLVKGFYPSDIAVEWESNGQPENNYKTTPPVLDSDGSFFLYSKLTVDKSRWQQGNVFSCSVMHEALHNHYTQESLSLSP light: DIQMTQSPSSLSASVGDRVTITCRASQDISSYLNWYQQKPGKAPKLLIYYTSRLHSGVPSRFSGSGSGTDFTFTISSLQPEDIATYYCQQGNTLPYTFGQGTKVEIK | 41 relative (IL6R-BF648/IL6R-L = 100) | 350 relative (IL6R-BF648/IL6R-L = 100) | 153 relative (IL6R-BF648/IL6R-L = 100) | 152 relative (IL6R-BF648/IL6R-L = 100) | 224 relative (IL6R-BF648/IL6R-L = 100)
4 | IL6R-BP147/IL6R-L (antibody, human IgG1, name in EU numbering, the list runs over r28 and r29; copies: 2 + 2) heavy: QVQLQESGPGLVKPSETLSLTCAVSGHSISHDHAWSWVRQPPGEGLEWIGFISYSGITNYNPSLQGRVTISRDNSKNTLYLQMNSLRAEDTAVYYCARSLARTTAMDYWGEGTLVTVSSASTKGPSVFPLAPSSKSTSGGTAALGCLVKDYFPEPVTVSWNSGALTSGVHTFPAVLQSSGLYSLSSVVTVPSSSLGTQTYICNVNHKPSNTKVDKKVEPKSCDKTHTCPPCPAPEYLGDDSVFLFPPKPKDTLMISRTPEVTCVVVDVSHEDPEVKFNWYVDGVEVHNAKTKPREEQYNSTYRVVSVLTVLHQDWLNGKEYKCKVSNAALPKPIEKTISKAKGQPREPQVYTLPPSRDELTKNQVSLTCLVKGFYPSDIAVEWESNGQPENNYKTTPPVLDSDGSFFLYSKLTVDKSRWQQGNVFSCSVMHEALHNHYTQESLSLSP light: DIQMTQSPSSLSASVGDRVTITCRASQDISSYLNWYQQKPGKAPKLLIYYTSRLHSGVPSRFSGSGSGTDFTFTISSLQPEDIATYYCQQGNTLPYTFGQGTKVEIK | 24 relative (IL6R-BF648/IL6R-L = 100) | 650 relative (IL6R-BF648/IL6R-L = 100) | 209 relative (IL6R-BF648/IL6R-L = 100) | 177 relative (IL6R-BF648/IL6R-L = 100) | 582 relative (IL6R-BF648/IL6R-L = 100)
5 | IL6R-BP149/IL6R-L (antibody, human IgG1, name in EU numbering, the list runs over r32 and r33; copies: 2 + 2) heavy: QVQLQESGPGLVKPSETLSLTCAVSGHSISHDHAWSWVRQPPGEGLEWIGFISYSGITNYNPSLQGRVTISRDNSKNTLYLQMNSLRAEDTAVYYCARSLARTTAMDYWGEGTLVTVSSASTKGPSVFPLAPSSKSTSGGTAALGCLVKDYFPEPVTVSWNSGALTSGVHTFPAVLQSSGLYSLSSVVTVPSSSLGTQTYICNVNHKPSNTKVDKKVEPKSCDKTHTCPPCPAPDYLGDDSVFLFPPKPKDTLMISRTPEVTCVVVDVSHEDPEVKFNWYVDGVEVHNAKTKPREEQDNSTYRVVSVLTVLHQDWLNGKEYKCKVSNAALPKPIEKTISKAKGQPREPQVYTLPPSRDELTKNQVSLTCLVKGFYPSDIAVEWESNGQPENNYKTTPPVLDSDGSFFLYSKLTVDKSRWQQGNVFSCSVMHEALHNHYTQESLSLSP light: DIQMTQSPSSLSASVGDRVTITCRASQDISSYLNWYQQKPGKAPKLLIYYTSRLHSGVPSRFSGSGSGTDFTFTISSLQPEDIATYYCQQGNTLPYTFGQGTKVEIK | 29 relative (IL6R-BF648/IL6R-L = 100) | 539 relative (IL6R-BF648/IL6R-L = 100) | 186 relative (IL6R-BF648/IL6R-L = 100) | 173 relative (IL6R-BF648/IL6R-L = 100) | 401 relative (IL6R-BF648/IL6R-L = 100)
6 | IL6R-BP133/IL6R-L (antibody, human IgG1, name in EU numbering, copies: 2 + 2) heavy: QVQLQESGPGLVKPSETLSLTCAVSGHSISHDHAWSWVRQPPGEGLEWIGFISYSGITNYNPSLQGRVTISRDNSKNTLYLQMNSLRAEDTAVYYCARSLARTTAMDYWGEGTLVTVSSASTKGPSVFPLAPSSKSTSGGTAALGCLVKDYFPEPVTVSWNSGALTSGVHTFPAVLQSSGLYSLSSVVTVPSSSLGTQTYICNVNHKPSNTKVDKKVEPKSCDKTHTCPPCPAPDYLGGDSVFLFPPKPKDTLMISRTPEVTCVVVDVSHEDPEVKFNWYVDGVEVHNAKTKPREEQYNSTYRVVSVLTVLHQDWLNGKEYKCKVSNKALPKPIEKTISKAKGQPREPQVYTLPPSRDELTKNQVSLTCLVKGFYPSDIAVEWESNGQPENNYKTTPPVLDSDGSFFLYSKLTVDKSRWQQGNVFSCSVMHEALHNHYTQESLSLSP light: DIQMTQSPSSLSASVGDRVTITCRASQDISSYLNWYQQKPGKAPKLLIYYTSRLHSGVPSRFSGSGSGTDFTFTISSLQPEDIATYYCQQGNTLPYTFGQGTKVEIK | 41 relative (IL6R-BF648/IL6R-L = 100) | 174 relative (IL6R-BF648/IL6R-L = 100) | 114 relative (IL6R-BF648/IL6R-L = 100) | 137 relative (IL6R-BF648/IL6R-L = 100) | 151 relative (IL6R-BF648/IL6R-L = 100)
7 | IL6R-BP144/IL6R-L (antibody, human IgG1, name in EU numbering, copies: 2 + 2) heavy: QVQLQESGPGLVKPSETLSLTCAVSGHSISHDHAWSWVRQPPGEGLEWIGFISYSGITNYNPSLQGRVTISRDNSKNTLYLQMNSLRAEDTAVYYCARSLARTTAMDYWGEGTLVTVSSASTKGPSVFPLAPSSKSTSGGTAALGCLVKDYFPEPVTVSWNSGALTSGVHTFPAVLQSSGLYSLSSVVTVPSSSLGTQTYICNVNHKPSNTKVDKKVEPKSCDKTHTCPPCPAPELLGDDSVFLFPPKPKDTLMISRTPEVTCVVVDVSHEDPEVKFNWYVDGVEVHNAKTKPREEQYNSTYRVVSVLTVLHQDWLNGKEYKCKVSNAALPAPIEKTISKAKGQPREPQVYTLPPSRDELTKNQVSLTCLVKGFYPSDIAVEWESNGQPENNYKTTPPVLDSDGSFFLYSKLTVDKSRWQQGNVFSCSVMHEALHNHYTQESLSLSP light: DIQMTQSPSSLSASVGDRVTITCRASQDISSYLNWYQQKPGKAPKLLIYYTSRLHSGVPSRFSGSGSGTDFTFTISSLQPEDIATYYCQQGNTLPYTFGQGTKVEIK | 64 relative (IL6R-BF648/IL6R-L = 100) | 204 relative (IL6R-BF648/IL6R-L = 100) | 128 relative (IL6R-BF648/IL6R-L = 100) | 121 relative (IL6R-BF648/IL6R-L = 100) | 108 relative (IL6R-BF648/IL6R-L = 100)

— US20230257470A1 (published 2023)
